Laboratory results reported in the supplement of paper PMC9112550, “Optimization of the antimicrobial peptide Bac7 by deep mutational scanning” (BMC Biology, 2022).

system: Escherichia coli TOP10; assay: shrunken log2 fold change of peptide-encoding DNA abundance (4.5 h post-induction vs induction); higher = less antimicrobial activity (less host growth inhibition); conditions: time post-induction: 4.5 h; library: site-saturation at positions 5, 18, 19, 20
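Further: peptides expressed intracellularly from a pBAD plasmid library in pooled LB shake-flask culture, induced with 0.3% L-arabinose, DNA abundance read by NGS, three biological replicates, DESeq2 with apeglm shrinkage.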

| Sequence | shrunken log2 fold change |
| --- | --- |
| RRIRARPPRLPRPRPRPHASPRP | -0.0111 |
| RRIRPRPPRLPRPRPRPKREPRP | 0.1 |
| RRIRNRPPRLPRPRPRPHGHPRP | -0.0841 |
| RRIRYRPPRLPRPRPRPPYYPRP | -0.214 |
| RRIRERPPRLPRPRPRPMPKPRP | 0.153 |
| RRIRVRPPRLPRPRPRPCFSPRP | -0.356 |
| RRIRDRPPRLPRPRPRPIFTPRP | -0.0502 |
| RRIRCRPPRLPRPRPRPFYEPRP | -0.741 |
| RRIRPRPPRLPRPRPRPSTQPRP | -0.355 |
| RRIRNRPPRLPRPRPRPNDGPRP | -0.00674 |
| RRIRKRPPRLPRPRPRPTLLPRP | 0.083 |
| RRIRTRPPRLPRPRPRPVTEPRP | 0.0394 |
| RRIRYRPPRLPRPRPRPTGFPRP | -0.0281 |
| RRIRNRPPRLPRPRPRPPMNPRP | -0.0606 |
| RRIRFRPPRLPRPRPRPERMPRP | 0.124 |
| RRIRPRPPRLPRPRPRPTLMPRP | 0.227 |
| RRIRDRPPRLPRPRPRPLHWPRP | -0.124 |
| RRIRARPPRLPRPRPRPGVFPRP | 0.502 |
| RRIRIRPPRLPRPRPRPHRHPRP | -0.364 |
| RRIRIRPPRLPRPRPRPQFTPRP | -0.986 |

| Sequence | shrunken log2 fold change |
| --- | --- |
| RRIRVRPPRLPRPRPRPCIRPRP | -0.198 |
| RRIRMRPPRLPRPRPRPRQTPRP | 0.0189 |
| RRIRHRPPRLPRPRPRPRHVPRP | -0.324 |
| RRIRPRPPRLPRPRPRPWLNPRP | -0.541 |
| RRIRTRPPRLPRPRPRPCHQPRP | -0.172 |
| RRIRFRPPRLPRPRPRPYPYPRP | -0.1 |
| RRIRERPPRLPRPRPRPKGDPRP | -0.0914 |
| RRIRSRPPRLPRPRPRPKQLPRP | 0.0372 |
| RRIRERPPRLPRPRPRPCCWPRP | 0.185 |
| RRIRNRPPRLPRPRPRPMPCPRP | 0.05 |
| RRIRHRPPRLPRPRPRPHLSPRP | -0.43 |
| RRIRPRPPRLPRPRPRPSFSPRP | -0.578 |
| RRIRFRPPRLPRPRPRPMMYPRP | -0.104 |
| RRIRARPPRLPRPRPRPYHHPRP | -0.826 |
| RRIRFRPPRLPRPRPRPALFPRP | 0.173 |
| RRIRCRPPRLPRPRPRPFNKPRP | -0.305 |
| RRIRERPPRLPRPRPRPRMQPRP | -0.0907 |
| RRIRLRPPRLPRPRPRPLFDPRP | -0.148 |
| RRIRWRPPRLPRPRPRPTQEPRP | 0.0333 |
| RRIRERPPRLPRPRPRPFIVPRP | -0.218 |

| Sequence | shrunken log2 fold change |
| --- | --- |
| RRIRMRPPRLPRPRPRPRQAPRP | 0.013 |
| RRIRRRPPRLPRPRPRPDLMPRP | 2.63 |
| RRIRMRPPRLPRPRPRPWRRPRP | 0.22 |
| RRIRQRPPRLPRPRPRPAYVPRP | -0.0582 |
| RRIRERPPRLPRPRPRPPQSPRP | 0.0516 |
| RRIRFRPPRLPRPRPRPGFFPRP | 0.023 |
| RRIRRRPPRLPRPRPRPELMPRP | 0.0537 |
| RRIRRRPPRLPRPRPRPCDIPRP | 0.181 |
| RRIRPRPPRLPRPRPRPIVNPRP | -0.166 |
| RRIRFRPPRLPRPRPRPNELPRP | -0.0316 |
| RRIRTRPPRLPRPRPRPCNSPRP | -0.0206 |
| RRIRFRPPRLPRPRPRPTIGPRP | -0.0631 |
| RRIRPRPPRLPRPRPRPMLHPRP | -0.0917 |
| RRIRTRPPRLPRPRPRPTTRPRP | 0.223 |
| RRIRWRPPRLPRPRPRPYDPPRP | -0.126 |
| RRIRCRPPRLPRPRPRPYPGPRP | -0.0268 |
| RRIRARPPRLPRPRPRPWNYPRP | -0.625 |
| RRIRERPPRLPRPRPRPRFHPRP | -0.447 |
| RRIRARPPRLPRPRPRPDLIPRP | 0.235 |
| RRIRIRPPRLPRPRPRPNLKPRP | -0.484 |
